Results from the supplement of paper PMC7877785.
± gives the uncertainty stated by the source.

Experiment: self-splicing fitness, log relative to wild type (ln ratio); higher = more splicing; Tetrahymena group I intron in knt gene, E. coli kanamycin selection, DiMSum; sequences stand for … in CUCUCU…GGAGGGAAAAGUUAUCAGGCAUGCACCUGGUAGCUAGUCUUUAAACCAAUAGAUUGCAUCGGUUUAAAAGGCAAGACCGUCAAAUUGCGGGAAAGGGGUCAACAGCCGUUCAGUACCAAGUCUCAGGGGAAACUUUGAGAUGGCCUUGCAAAGGGUAUGGUAAUAAGCUGACGGACAUGGUCCUAACCACGCAGCCAAGUCCUAAGUCAACAGAUCUUCUGUUGAUAUGGAUGCAGUUCACAGACUAAAUGUCGGUCGGGGAAGAUGUAUUCUUCUCAUAAGAUAUAGUCGGACCUCUCCUUAAUGGGAGCUAGCGGAUGAAGUGAUGCAACACUGGAGCCGCUGGGAACUAAUUUGUAUGCGAAAGUAUAUUGAUUAGUUUUGGAGUACUCGUGGUCG
In short: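 Fitness was computed with DiMSum as the error-weighted combination of replicate fold changes, kanamycin versus none, each normalised to wild type. The library randomised all eight intron nucleotides of the P1ex region, with the intron placed in the knt kanamycin-resistance gene on pET-22b(+) in E. coli BL21(DE3). Six replicate transformations were grown overnight at 37°C or 30°C on LB agar with or without 25 μg/mL kanamycin, plus 100 μg/mL carbenicillin, 50 μM IPTG and 0.2% rhamnose. Pooled colonies were amplicon-sequenced on an Illumina HiSeq 2500.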

| Sequence | self-splicing fitness (ln) (30 °C) | self-splicing fitness (ln) (37 °C) |
| --- | --- | --- |
| CCAGAGCAAUAUUACGCUGC | -2.85 ± 0.27 | -1.28 ± 0.25 |
| CCAGAGCAAUAUUACGCUUA | -3.34 ± 0.43 |  |
| CCAGAGCAAUAUUACGGAUU | -3.05 ± 0.15 | -2.38 ± 0.16 |
| CCAGAGCAAUAUUACGGCUC | -2.69 ± 0.23 | -2.76 ± 0.26 |
| CCAGAGCAAUAUUACGUAAU | -3.66 ± 0.23 | -3.18 ± 0.3 |
| CCAGAGCAAUAUUACGUACG | -1.46 ± 0.12 | -0.669 ± 0.13 |
| CCAGAGCAAUAUUACGUAGG | -3.25 ± 0.19 | -2.6 ± 0.25 |
| CCAGAGCAAUAUUACGUGUC | -2.88 ± 0.21 | -2.29 ± 0.32 |
| CCAGAGCAAUAUUACGUUUA | -3.95 ± 0.29 | -1.78 ± 0.2 |
| CCAUAGCAAUAUUACGAAAU | -2.98 ± 0.37 |  |
| CCAUAGCAAUAUUACGAAGA | -3.41 ± 0.29 | -2.91 ± 0.34 |
| CCAUAGCAAUAUUACGACUC | -3.37 ± 0.32 | -2.18 ± 0.28 |
| CCAUAGCAAUAUUACGAGUC | -4.04 ± 0.19 | -2.89 ± 0.21 |
| CCAUAGCAAUAUUACGAGUG | -1.44 ± 0.092 | -0.172 ± 0.097 |
| CCAUAGCAAUAUUACGCAGA | -2.96 ± 0.21 | -2.16 ± 0.24 |
| CCAUAGCAAUAUUACGCCGA | -1.4 ± 0.26 | -1.57 ± 0.42 |
| CCAUAGCAAUAUUACGCCUA | -2.85 ± 0.27 | -2.93 ± 0.35 |
| CCAUAGCAAUAUUACGCGUU | -3.53 ± 0.23 | -2.51 ± 0.24 |
| CCAUAGCAAUAUUACGCUGG | -3.54 ± 0.19 | -2.58 ± 0.2 |
| CCAUAGCAAUAUUACGGAUC | -1.97 ± 0.41 | -1.72 ± 0.32 |
| CCAUAGCAAUAUUACGGAUG | -2.42 ± 0.11 | -1.43 ± 0.11 |
| CCAUAGCAAUAUUACGGCAC |  | -1.84 ± 0.28 |
| CCAUAGCAAUAUUACGGCAG | -2.02 ± 0.14 | -1.34 ± 0.17 |
| CCAUAGCAAUAUUACGGCCU | -3.71 ± 0.37 |  |
| CCAUAGCAAUAUUACGGCUA | -2.48 ± 0.25 | -1.89 ± 0.28 |

| Sequence | self-splicing fitness (ln) (30 °C) | self-splicing fitness (ln) (37 °C) |
| --- | --- | --- |
| CCAUAGCAAUAUUACGGUGC | -3.09 ± 0.17 | -2.61 ± 0.25 |
| CCAUAGCAAUAUUACGUAAA | -4.17 ± 0.2 | -3.03 ± 0.32 |
| CCAUAGCAAUAUUACGUCCA | -1.27 ± 0.18 | -1.85 ± 0.33 |
| CCAUAGCAAUAUUACGUCCG | -0.229 ± 0.077 | 0.347 ± 0.13 |
| CCAUAGCAAUAUUACGUCUG | -1.4 ± 0.075 | -0.687 ± 0.07 |
| CCAUAGCAAUAUUACGUGGA | -2.2 ± 0.14 | -2.16 ± 0.18 |
| CCAUAGCAAUAUUACGUGGU | -4 ± 0.23 | -1.73 ± 0.13 |
| CCAUAGCAAUAUUACGUUUC | -3.12 ± 0.15 | -0.309 ± 0.2 |
| CCAUAGCAAUAUUACGUUUG | -1.68 ± 0.1 | -0.897 ± 0.1 |
| CCCAAGCAAUAUUACGAAGA | -3.32 ± 0.2 | -2.59 ± 0.2 |
| CCCAAGCAAUAUUACGAAUU | -3.33 ± 0.12 | -2.87 ± 0.15 |
| CCCAAGCAAUAUUACGACAA | -3.14 ± 0.17 | -3.12 ± 0.22 |
| CCCAAGCAAUAUUACGACCA | -4.66 ± 0.32 | -2.27 ± 0.17 |
| CCCAAGCAAUAUUACGAUGU | -3.53 ± 0.18 | -2.04 ± 0.15 |
| CCCAAGCAAUAUUACGCAUU | -3.82 ± 0.2 | -2.04 ± 0.19 |
| CCCAAGCAAUAUUACGCCGU | -3.66 ± 0.22 | -2.21 ± 0.19 |
| CCCAAGCAAUAUUACGCUAA | -3.05 ± 0.29 | -1.23 ± 0.21 |
| CCCAAGCAAUAUUACGCUCC |  | -1.68 ± 0.42 |
| CCCAAGCAAUAUUACGCUUG | -3.39 ± 0.18 | -1.92 ± 0.17 |
| CCCAAGCAAUAUUACGGACC | -2.96 ± 0.18 | -2.29 ± 0.26 |
| CCCAAGCAAUAUUACGGAGG | -1.95 ± 0.22 |  |
| CCCAAGCAAUAUUACGGCUC | -2.28 ± 0.21 | -2.59 ± 0.29 |
| CCCAAGCAAUAUUACGGUCA | -2.13 ± 0.12 | -2.22 ± 0.14 |
| CCCAAGCAAUAUUACGGUGA | -1.27 ± 0.07 | -1.16 ± 0.077 |
| CCCAAGCAAUAUUACGGUUA | -2.28 ± 0.12 | -2.38 ± 0.16 |

| Sequence | self-splicing fitness (ln) (30 °C) | self-splicing fitness (ln) (37 °C) |
| --- | --- | --- |
| CCCAAGCAAUAUUACGUAAG | -3.05 ± 0.19 | -1.87 ± 0.16 |
| CCCAAGCAAUAUUACGUACA | -2.94 ± 0.16 | -3.39 ± 0.23 |
| CCCAAGCAAUAUUACGUAGU | -3.65 ± 0.2 | -1.93 ± 0.14 |
| CCCAAGCAAUAUUACGUCCA | -1.96 ± 0.14 | -2.45 ± 0.23 |
| CCCAAGCAAUAUUACGUGCG | -4.13 ± 0.21 | -2.28 ± 0.18 |
| CCCAAGCAAUAUUACGUGUU | -4.07 ± 0.18 | -2.46 ± 0.13 |
| CCCAAGCAAUAUUACGUUGG | -3.48 ± 0.14 | -2.28 ± 0.13 |
| CCCAAGCAAUAUUACGUUUA | -3.62 ± 0.14 | -3.04 ± 0.18 |
| CCCCAGCAAUAUUACGAAUU | -3.01 ± 0.23 | -1.59 ± 0.36 |
| CCCCAGCAAUAUUACGAUCU | -3.24 ± 0.13 | -3.06 ± 0.22 |
| CCCCAGCAAUAUUACGCAAG | -3.05 ± 0.14 | -2.28 ± 0.19 |
| CCCCAGCAAUAUUACGCCCC | -2.98 ± 0.38 |  |
| CCCCAGCAAUAUUACGCCUG | -3.37 ± 0.19 | -2.97 ± 0.27 |
| CCCCAGCAAUAUUACGCGCA | -3.61 ± 0.27 | -1.36 ± 0.21 |
| CCCCAGCAAUAUUACGCUGU | -4 ± 0.21 | -3.09 ± 0.18 |
| CCCCAGCAAUAUUACGCUUU | -4.4 ± 0.25 | -3.36 ± 0.21 |
| CCCCAGCAAUAUUACGGCCA | -3.1 ± 0.2 | -2.16 ± 0.2 |
| CCCCAGCAAUAUUACGGCCU | -3.02 ± 0.29 | -2.82 ± 0.47 |
| CCCCAGCAAUAUUACGGCGU | -2.22 ± 0.073 | -1.81 ± 0.1 |
| CCCCAGCAAUAUUACGGGUC | -2.82 ± 0.11 | -2.43 ± 0.16 |
| CCCCAGCAAUAUUACGGUGA | -1.76 ± 0.085 | -1.77 ± 0.11 |
| CCCCAGCAAUAUUACGUAUG | -3.71 ± 0.15 | -1.96 ± 0.13 |
| CCCCAGCAAUAUUACGUCAG | -2.54 ± 0.14 | -1.36 ± 0.15 |
| CCCCAGCAAUAUUACGUCGU | -3.19 ± 0.12 | -2.05 ± 0.12 |
| CCCCAGCAAUAUUACGUUCG | -3.53 ± 0.16 | -2.79 ± 0.17 |

| Sequence | self-splicing fitness (ln) (30 °C) | self-splicing fitness (ln) (37 °C) |
| --- | --- | --- |
| CCCCAGCAAUAUUACGUUGC | -3.41 ± 0.12 | -2.78 ± 0.17 |
| CCCCAGCAAUAUUACGUUGG | -3.95 ± 0.12 | -2.83 ± 0.14 |
| CCCGAGCAAUAUUACGAAAG | -3.74 ± 0.27 | -1.7 ± 0.36 |
| CCCGAGCAAUAUUACGAAAU | -3.65 ± 0.33 | -0.929 ± 0.16 |
| CCCGAGCAAUAUUACGAAUC | -1.59 ± 0.16 |  |
| CCCGAGCAAUAUUACGACAC | -3.41 ± 0.4 |  |
| CCCGAGCAAUAUUACGACGU | -2.47 ± 0.15 | -0.954 ± 0.13 |
| CCCGAGCAAUAUUACGAUGG | -3.39 ± 0.16 | -1.28 ± 0.13 |
| CCCGAGCAAUAUUACGCAGU | -2.82 ± 0.16 | -2.64 ± 0.18 |
| CCCGAGCAAUAUUACGCGUA | -3.06 ± 0.21 | -2.05 ± 0.21 |
| CCCGAGCAAUAUUACGGAAC | -2.51 ± 0.31 | -2.57 ± 0.34 |
| CCCGAGCAAUAUUACGGACC | -3 ± 0.28 |  |
| CCCGAGCAAUAUUACGGAGC | -1.75 ± 0.16 | -2.77 ± 0.36 |
| CCCGAGCAAUAUUACGGAUG | -1.67 ± 0.091 | -1.35 ± 0.13 |
| CCCGAGCAAUAUUACGGGAG | -3.25 ± 0.24 | -1.5 ± 0.19 |
| CCCGAGCAAUAUUACGGGUA | -3.44 ± 0.2 | -3.43 ± 0.23 |
| CCCGAGCAAUAUUACGUAAG | -3.63 ± 0.2 | -2.77 ± 0.18 |
| CCCGAGCAAUAUUACGUAGU | -3.11 ± 0.15 | -2.58 ± 0.19 |
| CCCGAGCAAUAUUACGUCGC | -2.91 ± 0.25 | -2.29 ± 0.4 |
| CCCGAGCAAUAUUACGUGUG | -3.24 ± 0.12 | -1.86 ± 0.098 |
| CCCUAGCAAUAUUACGAACU | -2.89 ± 0.18 | -3.56 ± 0.39 |
| CCCUAGCAAUAUUACGAGUG | -3.51 ± 0.16 | -2.28 ± 0.12 |
| CCCUAGCAAUAUUACGAUAG | -2.74 ± 0.2 | -2.39 ± 0.27 |
